Our source for the binding result and Kd values is US20130123350, “NUCLEIC ACID MOLECULE CAPABLE OF BINDING TO c-MET AND USE THEREOF” (KANAGAWA PREFECTURAL HOSPITAL ORGANIZATION, published 2013).

The target in data set [1] is T1, rec-cMet (Recombinant Human HGF R/c-MET/Fc Chimera) (Homo sapiens, UniProt P08581;P08581 SEQ:1-283,SEQ:1-625). The data set can be described thus: SPR; best fluorinated binder; rec-cMet 60 nM. The settings on record: tags: C-terminal HIEGRMD linker, human IgG Fc (100-330), 6xHis; R&D Systems; chain copies: 2 (inferred, Fc chimera). An excerpt: (§1) The binding ability of each of the RNA aptamers to the rec-cMet was examined in the same manner as in Example 5, except that the fluorinated RNA aptamers were used. The concentration of the rec-cMet was set to 60 nmol/L. With the time point at which the introduction of the rec-cMet to the chip was started being 0 seconds, introduction of a buffer was started 60 seconds later. As a comparative example, the same negative control as in Example 6 was used.
(§2) FIG. 12 is a graph showing the binding ability of each of the RNA aptamers to the rec-cMet. In FIG. 12, the vertical axis indicates the signal intensity (RU) measured with BIACORE (registered trademark) X. The signal intensity shown in the graph is a value measured at the 60th second when the buffer was introduced. […] By fluorination, these RNA aptamers had acquired RNase resistance and they also maintained the bonding force to the c-Met. Thus, it can be seen that these fluorinated RNA aptamers are particularly suitable for use in vivo and in vitro. All the RNA aptamers maintained equivalent signal values subsequent to the 60th second. Thus, it was confirmed that no decrease in binding ability occurred.

Data set [2] has as its target T1, rec-cMet (Recombinant Human HGF …). The data set can be described thus: SPR; excellent binding; rec-cMet 60 nM. The settings on record: tags: C-terminal HIEGRMD linker, human IgG Fc (100-330), 6xHis; R&D Systems; chain copies: 2 (inferred, Fc chimera).
From the text: as §1, §2

Data set [3] addresses rec-NGFR (Recombinant Human NGF R/TNFRSF16/Fc Chimera) (Homo sapiens, UniProt P08138 SEQ:1-222). The data set can be described thus: ELONA; signal below 40N. Conditions: tags: C-terminal DIEGRMD linker, human IgG Fc (100-330), 6xHis; R&D Systems; chain copies: 2 (inferred, Fc chimera). As for the experimental part:
(§3) Next, a 20-mer polyadenine (poly A) was added to the 3′ end of each of the RNA aptamers. Thus, poly-A-added RNA aptamers were prepared. Each of the poly-A-added RNA aptamers was denatured, and thereafter, the denatured poly-A-added RNA aptamer was mixed with a 20-mer biotinylated polythymine with its 5′ end being biotinylated (740 nmol/L), tRNA (100 μg/mL), and an RNase inhibitor (0.16 units/mL). As a result, complementary binding occurred between the poly A in the poly-A-added RNA aptamer and the polythymine (poly T) in the biotinylated polythymine, whereby a biotin-labeled RNA aptamer was produced. The biotin-labeled RNA aptamer was added to the plate, and the plate was incubated at 4° C. for 30 minutes. Subsequently, the plate was washed, and 0.1 μg/mL HRP-streptavidin (Thermo Fisher Scientific Inc., USA) was added thereto. The plate was then washed, after which a 1-Step Ultra TMB substrate (Thermo Fisher Scientific Inc., USA) was added to the plate to cause color development, and the absorbance at 450 nm was measured.
The binding ability of each of the RNA aptamers to the rec-NGFR was examined in the same manner as in Example 1, except that the rec-NGFR was bound to the plate. Also, as a comparative example, the 40N was used, and the binding ability thereof was examined in the same manner.

For data set [4], the target named is T1, rec-cMet (Recombinant Human HGF …). The data set can be described thus: ELONA; 3' polyA20/biotin-polyT; also SPR FIG. 11. Conditions: tags: C-terminal HIEGRMD linker, human IgG Fc (100-330), 6xHis; R&D Systems; chain copies: 2 (inferred, Fc chimera). As for the experimental part: (§4) An anti-IgG antibody (trade name: “Human IgG-Fc Antibody”, Bethyl Laboratories) was adsorbed on a 96-well plate (Iwaki, AGC Techno Glass Co., Ltd., Japan), and then was subjected to blocking using 1% bovine serum albumin. Subsequently, 50 μL of the 1 μg/mL rec-cMet was added to the plate. Further, Tris (20 mmol/L), sodium chloride (100 mmol/L), magnesium acetate (0.1 mmol/L) and Triton (registered trademark)-X100 (0.2%) were added to the plate so that their final concentrations would be as shown in the parentheses. The plate was incubated at room temperature for 3 hours, thus causing the rec-cMet to bind to the plate. After the incubation, the plate was washed three times with a washing solution. The composition of the washing solution was as follows: 20 mmol/L Tris, 100 mmol/L sodium chloride, 0.1 mmol/L magnesium acetate, and 0.2% Triton (registered trademark)-X100. As a control, incubation and washing were carried out in the same manner, except that 50 μL of the washing solution was added instead of 50 μL of the rec-cMet.
as §3

The target is the same in data set [5]. The data set can be described thus: SPR; rec-cMet 175 nM; also ELISA signal above g1 (FIG. 7). The settings on record: tags: C-terminal HIEGRMD linker, human IgG Fc (100-330), 6xHis; R&D Systems; chain copies: 2 (inferred, Fc chimera). As for the experimental part: (§5) Using these truncated RNA aptamers, the binding ability thereof to the rec-cMet was examined. The binding ability was analyzed using BIACORE (registered trademark) X (GE Healthcare) in accordance with its instructions for use, with the concentration of the rec-cMet being set to 175 nmol/L. Also, the binding ability of each of the RNA aptamers g1 and g1-trA was examined in the same manner. As a comparative example, the 40N was used, and the binding ability thereof was examined in the same manner.

Data set [6] shares this target. Put plainly: ELONA; signal higher than g1. Conditions: tags: C-terminal HIEGRMD linker, human IgG Fc (100-330), 6xHis; R&D Systems; chain copies: 2 (inferred, Fc chimera). As for the experimental part:
as §4, §3
The binding ability of each of the RNA aptamers to the rec-cMet was examined in the same manner as in Example 1, except that the truncated RNA aptamers were used. Also, the binding ability of the RNA aptamer g1 was examined in the same manner.

Data set [7] shares this target. The data set can be described thus: ELONA; high binding; 3' polyA20 hybridised to biotin-polyT; 20 mM Tris, 100 mM NaCl, 0.1 mM Mg acetate, 4 C; also SPR FIG. 11. Conditions: tags: C-terminal HIEGRMD linker, human IgG Fc (100-330), 6xHis; R&D Systems; chain copies: 2 (inferred, Fc chimera). As for the experimental part:
as §4
(§6) Next, a 20-mer polyadenine (poly A) was added to the 3′ end of each of the RNA aptamers. Thus, poly-A-added RNA aptamers were prepared. […] The plate was then washed, after which a 1-Step Ultra TMB substrate (Thermo Fisher Scientific Inc., USA) was added to the plate to cause color development, and the absorbance at 450 nm was measured.

The target is the same in data set [8]. The data set can be described thus: SPR; rec-cMet 175 nM. Conditions: tags: C-terminal HIEGRMD linker, human IgG Fc (100-330), 6xHis; R&D Systems; chain copies: 2 (inferred, Fc chimera). As for the experimental part:
as §5

The target is the same in data set [9]. Put plainly: ELONA; Table 2 misnumbers as SEQ 48; also SPR FIG. 11. The settings on record: tags: C-terminal HIEGRMD linker, human IgG Fc (100-330), 6xHis; R&D Systems; chain copies: 2 (inferred, Fc chimera). As for the experimental part: as §4, §6
The target is the same in data set [10]. Put plainly: ELONA; high binding; Table 2 misnumbers as SEQ 47; also SPR FIG. 11. Conditions: tags: C-terminal HIEGRMD linker, human IgG Fc (100-330), 6xHis; R&D Systems; chain copies: 2 (inferred, Fc chimera). As for the experimental part: as §4, §6
For data set [11] the target is unchanged. Put plainly: ELONA; highest binding; Table 2 misnumbers as SEQ 46; also SPR FIG. 11. The settings on record: tags: C-terminal HIEGRMD linker, human IgG Fc (100-330), 6xHis; R&D Systems; chain copies: 2 (inferred, Fc chimera). As for the experimental part: as §4, §6
Data set [12] has the same target. The data set can be described thus: ELONA; high binding; 3' polyA20/biotin-polyT; also SPR FIG. 11. The settings on record: tags: C-terminal HIEGRMD linker, human IgG Fc (100-330), 6xHis; R&D Systems; chain copies: 2 (inferred, Fc chimera). As for the experimental part:
as §4, §6

rec-NGFR (Recombinant Human NGF R/TNFRSF16/Fc Chimera), sequence (P08138 29-250, change not shown): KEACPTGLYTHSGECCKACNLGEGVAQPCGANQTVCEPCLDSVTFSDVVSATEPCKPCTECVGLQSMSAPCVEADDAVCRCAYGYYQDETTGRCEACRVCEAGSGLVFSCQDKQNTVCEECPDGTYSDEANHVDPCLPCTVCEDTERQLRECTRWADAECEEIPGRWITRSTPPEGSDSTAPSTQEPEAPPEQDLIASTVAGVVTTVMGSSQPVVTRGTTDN
T1 sequence (P08581 25-307, change not shown, chain 1 of 2): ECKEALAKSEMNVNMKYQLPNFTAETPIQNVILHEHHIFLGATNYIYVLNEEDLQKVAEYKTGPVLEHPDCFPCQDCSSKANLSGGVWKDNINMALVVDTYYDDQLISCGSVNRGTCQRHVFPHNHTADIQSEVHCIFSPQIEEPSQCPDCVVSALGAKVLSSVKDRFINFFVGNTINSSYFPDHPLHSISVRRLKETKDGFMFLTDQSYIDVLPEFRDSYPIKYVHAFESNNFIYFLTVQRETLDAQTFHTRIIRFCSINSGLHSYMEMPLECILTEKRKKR
T1 sequence (P08581 308-932, change not shown, chain 2 of 2): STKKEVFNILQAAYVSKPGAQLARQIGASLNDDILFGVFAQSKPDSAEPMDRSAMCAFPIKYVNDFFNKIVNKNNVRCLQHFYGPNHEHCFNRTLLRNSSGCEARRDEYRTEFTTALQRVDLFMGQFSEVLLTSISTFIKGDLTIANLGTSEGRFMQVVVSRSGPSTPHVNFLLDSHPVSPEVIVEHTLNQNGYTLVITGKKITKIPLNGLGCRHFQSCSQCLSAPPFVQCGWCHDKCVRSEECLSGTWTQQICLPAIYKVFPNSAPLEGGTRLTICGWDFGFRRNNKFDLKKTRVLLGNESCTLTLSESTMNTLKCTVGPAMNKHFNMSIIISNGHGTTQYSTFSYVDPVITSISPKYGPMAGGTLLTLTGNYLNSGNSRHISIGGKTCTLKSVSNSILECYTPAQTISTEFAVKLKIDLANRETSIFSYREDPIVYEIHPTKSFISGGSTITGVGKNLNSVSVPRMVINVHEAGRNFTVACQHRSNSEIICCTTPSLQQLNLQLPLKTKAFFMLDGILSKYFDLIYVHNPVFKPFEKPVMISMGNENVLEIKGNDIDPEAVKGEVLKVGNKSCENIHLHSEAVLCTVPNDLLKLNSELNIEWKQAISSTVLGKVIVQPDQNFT

B1: g38 2'-F (ssRNA)
RNA: GGGACGCUCACGUACGCUAACCAGGAGCAUUAGACCGGGGAAAGAAGGAGUACCGUCUGGUCAGUGCCUGGACGUGCAGU
modifications: 2'-F on all C and U
For the molecule B1, the binding result in data set [1] is reported as “binds”.

B2: g29 2'-F (ssRNA)
RNA: GGGACGCUCACGUACGCUAAACGAGCCGUGAUUGGGUUGGCAACCCUGCUUAUGUGAGGAUCAGUGCCUGGACGUGCAGU
modifications: 2'-F on all C and U
For the molecule B2, the binding result in [2] is reported as “binds”.

B3: g4 (ssRNA)
RNA: GGGACGCUCACGUACGCUAAUACCGUGAUUCGGGGUGGUAUCCGGUGGACAUCCAGGUCGUCAGUGCCUGGACGUGCAGU
As for B3, the binding result is on record as “no binding” in data set [3] and “binds” in [4].
GGGCACUGAGAGUUUGACCAGCUAUUAAAUGGGUCGUGACUCAGUG (ssRNA) [g1-trA]: the dissociation constant Kd in data set [5] was 8.18 nM.

B4: g1-u20del (ssRNA)
RNA: GGGCACUGAGAGUUUGACCAGCUAUUAAAUGGGUCGUGACUCAGUGCCUGGACGUG
On to B4, for which the binding result in [6] is given as “binds”.

B5: g1 (ssRNA)
RNA: GGGACGCUCACGUACGCUAAACACACUGAGAGUUUGACCAGCUAUUAAAUGGGUCGUGACUCAGUGCCUGGACGUGCAGU
Turning to B5, the values for the binding result in [3] and in data set [7] were “no binding” and “binds”, respectively.
GGGACUGAGAGUUUGACCAGCUAUUAAAUGGGUCGUGACUCAGU (ssRNA) [g1-miniA]: in [8], the dissociation constant Kd came to 7.98 nM.

B6: g3 (ssRNA)
RNA: GGGACGCUCACGUACGCUAAGGGCGAAACUGUCGUGACACGGUUUGACAUGCCGGCCUUAUCAGUGCCUGGACGUGCAGU
Consider B6, for which the values for the binding result in [3] and in data set [4] were “no binding” and “binds”, respectively.

B7: g9 (ssRNA)
RNA: GGGACGCUCACGUACGCUAAGAUGUCUCAAUUGGUCGUGAUUGUGCUGACCACACGAACCUCAGUGCCUGGACGUGCAGU
In the case of B7, the results for the binding result in data set [3] and in data set [9] were “no binding” and “binds”, respectively.

B8: g1-d5del (ssRNA)
RNA: GGGACGCUCACGUACGCUAAACACACUGAGAGUUUGACCAGCUAUUAAAUGGGUCGUGACUCAGUGCCUGGACGU
B8: the binding result in data set [6] is “binds”.

B9: g8 (ssRNA)
RNA: GGGACGCUCACGUACGCUAAGGGCACUUAAAACCAGACCGUGAUUUGCGGUUGGUCUCGCUCAGUGCCUGGACGUGCAGU
B9: the binding result in data set [3] was “no binding”; in data set [10] it was “binds”.

B10: g2 (ssRNA)
RNA: GGGACGCUCACGUACGCUAAACCCUGGCGAUCUCCGGCCGGAUACGGGAGAACGAGGUACUCAGUGCCUGGACGUGCAGU
Take B10: the binding result in data set [3] is “no binding”; in [4], “binds”.

B11: g1-d10del (ssRNA)
RNA: GGGACGCUCACGUACGCUAAACACACUGAGAGUUUGACCAGCUAUUAAAUGGGUCGUGACUCAGUGCCUG
For B11, the binding result in data set [6] is “binds”.

B12: g1-u5del (ssRNA)
RNA: GGGCACGUACGCUAAACACACUGAGAGUUUGACCAGCUAUUAAAUGGGUCGUGACUCAGUGCCUGGACGUGCAG
B12: the binding result in data set [6] was “binds”.

B13: g7 (ssRNA)
RNA: GGGACGCUCACGUACGCUAACUUGAAGUCAAGGGUAGAGUGACCAUGCAGCUCGUAGACAUCAGUGCCUGGACGUGCAGU
Take B13: the binding result in [3] is “no binding”; in data set [11], “binds”.

B14: g1-u10del (ssRNA)
RNA: GGGACGCUAAACACACUGAGAGUUUGACCAGCUAUUAAAUGGGUCGUGACUCAGUGCCUGGACGUGC
For B14, the binding result in [6] was “binds”.

B15: g5 (ssRNA)
RNA: GGGACGCUCACGUACGCUAAGCCCAACGAACAUUUUGAGUUUCCAGGCAGCUCAUAGACAUCAGUGCCUGGACGUGCAGU
Turning to B15, the binding result in data set [12] is recorded as “binds”; in [3] it was “no binding”.
In the case of GGGCUGAGAGUUUGACCAGCUAUUAAAUGGGUCGUGACUCAG (ssRNA) [g1-miniB], in data set [8], the Kd worked out at 26.4 nM.

B16: g25 2'-F (ssRNA)
RNA: GGGACGCUCACGUACGCUAAUAGCAACAGUUCCCAGAGGUGAUCAGGCAGCCUUAAGACAUCAGUGCCUGGACGUGCAGU
modifications: 2'-F on all C and U
Regarding B16, the binding result in data set [2] is recorded as “binds”.
With GGGUGAGAGUUUGACCAGCUAUUAAAUGGGUCGUGACUCA (ssRNA) [g1-miniC], the binding result in data set [8] was “binds”.
